This data set is described as follows: soluble on expression in E. coli; label from the status in PepcDB or PDB records.
In the case of “MSLKRAIIIGATSGIGKEVAQRLLSEGWQIGIAGRRQSALEEFRQIAPEQIKIQSLDVTQEYSAGKLDALIHQLGGMDLFLLSSGIGFQNMELNMEIELNTARTNVEGFTRMVDTAFSYFRNNGGGHLAVISSIAGTKGLGVAPAYSATKRFQNTYIDALEQLSHLQKLDIHFTDIRPGFVATDLLNDGKHYPMLMKTDQVGRDIVRALHRKEGHHHHHH”, the “soluble on expression in E. coli” value was “not soluble”.

Consider “MSLKRVVIIGMGFGGIRAARVLAGKGLDVVLVDRNNYHLFQPLLYQVGTAGLEQESIAYPVRAMAREWRGTRFHLAEVAGVDFPAREVVTGNGRIPYDYLIIGAGSVTNYFGLESVERHAFDLKELVDGERLRNHILTAFERAVVEPDPAKRRALMTFVIVGGGPTGVEFAGALMELVRYVLAKDYPELSVQAARVVLVEAFDRLLAAMPQELQVYTLEKLRAMGVEVLFNARVEGHHHHHH”, for which the “soluble on expression in E. coli” value is “not soluble”.

Regarding “MSLKSGCSARQVCAGNTHFAVVTVEKELYTWVNMQGGTKLHGQLGHGDKASYRQPKHVEKLQGKAIHQVSCGDDFTVCVTDEGQLYAFGSDYYGCMGVDKVAGPEVLEPMQLNFFLSNPVEQVSCGDNHVVVLTRNKEVYSWGCGEYGRLGLDSEEDYYTPQKVDVPKALIIVAVQCGCDGTFLLTQSGKVLACGLNEFNKLGLNQCMSGIINHEAYHEVPYTTSFTLAKQLSFYKIRTIAPGKTHTAAIDERGRLLTFGCNKCGQLGVGNYKKRLGINLLGGPLGGKQVIRVSCGDEFTIAATDDNHIFAWGNGGNGRLAMTPTERPHGSDICTSWPRPIFGSLHHVPDLSCRGWHTILIVEKVLNSKTIRSNSSGLSIGTVFQSSSEGHHHHHH”, the “soluble on expression in E. coli” value is given as “not soluble”.

With “MSLKSVASGKELAGLRVMVIDDSKTIRRTAETLLKREGCEVVTAIDGFEALAKIADQKSQIIFVDIMMPRLDGYQTCALIKNNNLFKSTPVIMLSSKDGLFDKARGRVVGSEQYLTKPFTREELLSAIRTYVNPLKLAEGHHHHHH”, the “soluble on expression in E. coli” value is “not soluble”.

“MSLKTGTTLEKLAQVKTVAFDKTGTITQGKLVVDQVVPQGSQSADRLLQLAASAEQHSSHVLAQSLVAANRLPLLTATNVTETTAQGVVATINGQQVRAGKAAFVTSESITKPDQTAVYVAVDDVYQGYVSFNDRVRPEAATTMTRLRQAGVAHLMMISGDRQPIAEQIAQEVGLDQVHAECLPAGKIAVLDQLAANQRPVAMVGDGINDAPSLATADVGIAMGAHGATAASESADAVVLKDDLTRVSTARVIAQDTMRVARQSEGHHHHHH”: the “soluble on expression in E. coli” value is given as “soluble”.

For the sequence “MSLKTIAIDFETANEERGSACSVGLAWIEDGQIVRVEERLIRPRDMRFSPFNIAVHGIRPRDVEDAPEFPEVMEEFIDDFHGATMIAHNAAFDFSVMRASFDKYRLSYPDLSYLCSVKIARHVWPHLVSHKLNVIAHHLQLRFVHHNAAEDAVVCAAASIAAARALGVAHIRDLPEKIGEGHHHHHH”, the “soluble on expression in E. coli” value is on record as “not soluble”.

As for “MSLKTIVVKFGTSTLTQGSPKLNSPHMMEIVRQIAQLHNDGFRIVIVTSGAIAAGRHYLNHPQLPPTIASKQLLAAVGQSQLIQAWEKLFAIYDIHIGQLLLTRADIEDRERFLNARDTLYALLDNHIIPVINENDAVATAEIKVGDNDNLSALVAILVQAEQLYLLTDQQGLFDSDPRKNPEAKLIPVVEQITDHIRSIAGGSGTNLGTGGMMTKIIAADVATRSGIETIIAPGNRPNVIADLAYEQNIGTKFIAHQSDRLESRKQWLFAAPSAGIITIDNGAQNAILEQNKSLLPAGIINVEGRFSRGEVVKIRTQSGKDIALGMPRYNSDALQLIKGRKSADIENVLGYEYGAVAMHRDDMIILSEGHHHHHH”, the “soluble on expression in E. coli” value was “soluble”.

Take “MSLKTLIKNVHILTMDEQFSEIKAGYLVIEEDTIVELAPMTTLDEKRMAANQVIDGQNGILMPGMINTHTHVGMIPFRSLGDDVPDRLRRFLFPLEQFMTKELVGCSSDYAIAEMLLSGITSFCDMYYFEDEIAKSCEKMSVRALLGETIIDMPTCDSPEPSGGLFYAETFIRKWQGHPLITPMLAPHAPNTNSPEVLAKIIELSRQYQVPVTMHVAEMTYEMAEFEKAYQKTPIAFLEELGYLSEPFILAHCILATDEDLASLAATNGKARVAHCIGANTKSAKGVAPIKQMLDQGIIVGLGTDGPSSGNTLDLFTQMRMVANFHKTAHQDRSLFPAKEIVYLATMGGAKTLGLAEQVGSLEVDKKADITLIETQSVNMFPIFDAYSALVYSANASNVEAVWVNGQQLVANKELQQANLKEIKEKLYQAMNTFVKEAKKRAALEGHHHHHH”: the “soluble on expression in E. coli” value is on record as “soluble”.

Consider “MSLKTVEDNRTSLTDQVLKGTLIQDKLYESNKYYPIYGSSELGKDDPFNPAIALNKHNANKKAFLLGAGGSTDLINAIELASQYDKLKGKKLTFIISPQWFTNHGLTNQNFDARMSQTQINQMFQQKNMSTELKRRYAQRLLQFPHVHNKEYLKSYAKNPKETKDSYISGFKENQLIKIEAIKSLFAMDKSPLEHVKPATKPDASWDEMKQKAVEIGKADTTSNKFGIRDQYWKLIQESKRKVRRDYEFNVNSPEFQDLELLVKTMRAAGADVQYVSIPSNGVWYDHIGIDKERRQAVYKKIHSTVVDNGGKIYDMTDKDYEKYVISDAVHIGWKGWVYMDEQIAKHMKGEPQPEVDKPKNEGHHHHHH”, for which the “soluble on expression in E. coli” value is listed as “soluble”.

As for “MSLKTVFKPTLLAVLVAASAPVLAHSLIADTKAPSPTTKAFAAEQRNTLPFADQEDFKLVEKGLIAQQKDLEIKDANGKVVWELGNYRFLLDGLDYDSIHPSLQRQAQLNMHHGLYKVTDRIYQVRGYDLANITFVKGDTGWIVFDPLTVPATAKAALDFVNQELGERPVKAVVYSHAHADHFGGVKGIVSQEQVDRGEVPIIAPKGFLNHAVAENVLAGNAMSRRTTYQYGNVLPKGATGQVDAAIGKNVAQGEVSLIAPTKVISEQTETVVIDGVTMEFQNTPGTESPAEMNTYFPQFKALWMAENTVGGLHNVYTLRGAEVRDAKAWSKYINESIHMYAKEADVMFASHTWPRWGNDNINHFLRKQRDMYGYIHDQALRLANHGVTINEIQDEFHVPDVLAHEWYNRGYHGSYHRNAKAVINKYLGYFDMNPATLRPLAPTDAAPKYVAAMGGMDNVIKLGKEAFDKGEFRWCAEIVDKAVFAEPSNKQARYLQADCLEQLGYQSESAGERNTYLMGAYELRNGVPKVSATKTAGADTVVAMDTELFLDYLGVRLNGDKAAGIDYTINFVLPDVNEKFLVELENAHLNNLKGIQSENPDMTLTLNRAQLNQVLMGKTTIQQLAKEGKAKIEGNAQALTDIAGMLDNFEFWFNIIEPKTKEGGSHHHHHH”, the “soluble on expression in E. coli” value is listed as “soluble”.

“MSLKVGECMTKFNWHESAEKKWDSSAEFWNQNSQEMWDSGSRSTIIPFFEQYVKKEAEVLDVGCGDGYGTYKLSRTGYKAVGVDISEVMIQKGKERGEGPDLSFIKGDLSSLPFENEQFEAIMAINSLEWTEEPLRALNEIKRVLKSDGYACIAILGPTAKPRENSYPRLYGKDVVCNTMMPWEFEQLVKEQGFKVVDGIGVYKRGVNEKMLGQLSTDLQQSLTFLWVFMLKRHKEMKEFLGGKEGHHHHHH”: the “soluble on expression in E. coli” value is given as “soluble”.

With “MSLKVIICGAGQVGYGIAEQLSREDNEVSVIDTAAPLITAITETLDVRGYVGHGAHPDMLAKAGADQADMIIAVTLHDEINIVACEVAHALFSVPTKIARIRDQSYMKPEYADLFSRENMSIDVTISPEVEVGKMVLRRIAFPGATDVVRFAEDTIYMLAIECMEDCPVINTPLQQLSSLFPDLIATVVGVYRDGILKVAHSSEQLRVGDLAYVICQRQHARRTLSLFGHEEQEGHHHHHH”, the “soluble on expression in E. coli” value is recorded as “not soluble”.

As to “MSLKVLLLDVDGTLLSFETHKVSQSSIDALKKVHDSGIKIVIATGRAASDLHEIDAVPYDGVIALNGAECVLRDGSVIRKVAIPAQDFRKSMELAREFDFAVALELNEGVFVNRLTPTVEQIAGIVEHPVPPVVDIEEMFERKECCQLCFYFDEEAEQKVMPLLSGLSATRWHPLFADVNVAGTSKATGLSLFADYYRVKVSEIMACGDGGNDIPMLKAAGIGVAMGNASEKVQSVADFVTDTVDNSGLYKALKHFGVIEGHHHHHH”, the “soluble on expression in E. coli” value is “soluble”.

Regarding “MSLKWFNTLSHNRWLEQETDRIFNFGKNAVVPTGFGWLGNKGQIKEEMGTHLWITARMLHVYSVAASMGRPGAYDLVDHGIKAMNGALRDKKYGGWYACVNDQGVVDASKQGYQHFFALLGAASAVTTGHPEARKLLDYTIEVIEKYFWSEEEQMCLESWDEAFSQTEDYRGGNANMHAVEAFLIVYDVTHDKKWLDRALRIASVIIHDVARNGDYRVNEHFDSQWNPIRDYNKDNPAHRFRAYGGTPGHWIEWGRLMLHLHAALEARFETPPAWLLEDAKGLFHATIRDAWAPDGADGFVYSVDWDGKPIVRERVRWPIVEAMGTAYALYTLTDDSQYEEWYQKWWDYCIKYLMDYENGSWWQELDADNKVTTKVWDGKQDIYHLLHCLVIPRLPLAPGLAPAVAAGLLDINAKEGGSHHHHHH”, the “soluble on expression in E. coli” value was “soluble”.

Consider “MSLKWIDSHIHVDQYKDEEKSRLLKDVENSKEIQGLIAVSMNYQSSKEILSLAKRYSFVHPAVGFHPEQPIHKEECEKIYKLIEDHVEDIVAIGEVGLPYYLRKEDEHIAINSYISVLQRFVELASKYDLPIVLHAVYEDADVVCDLLEKHKVSRAHFHWFKGSETTMERMMRNGYYISITPDVLHKEKIRKIVSYYPLEYMMVETDGPWGFQEGVMTHPGMIREVLKEISVIKNVAVDKVAETIYENTIQFYLKGEGHHHHHH”, for which the “soluble on expression in E. coli” value is recorded as “soluble”.

Regarding “MSLLGAAESTLEFYDLSHPWGHGAPAWPYFEDVQIERLHGMAKSRVLTQKITTVMHSGTHIDAPAHVVEGTPFLDEIPLSAFFGTGVVVSIPKGKWGMVTAEDLQNATPDIRPGDIVVVNTGWHHKYADSAEYYAYSPGFDKKAGEWFAAKGVKAVGTDTQALDHPLATAIAPHSPAEAQGGLLPWAVREYEAQTGRKVLDDFPDWEPCHRAILSQGIYGFENVGGDLDKVTGKRVTFAAFPWRWVGGDGCIVRLVAIVDPTGSYRIETGKAVEGHHHHHH”, the “soluble on expression in E. coli” value is “soluble”.

Turning to “MSLLIKNGTIVNDDAIFKSDVLVLDGRIVEIAPSIQPTPGLEVVDATDRLVIPGGIDPHTHMQLPFMGEIAKDDFHRGTEAAVAGGTTMIIDFVIPTKGESLLVAYDRWRGWADPKVVCDYGLSMAITSWGPEIAKEMEIVTGAEYGINSFKFFLAYAGVFMVRDEEFYQGMIQCAKLRALARVHAENGSVIAERCEHLLSSGITGPEGHTQSRPEELEAEATFRACTMASQANCPLYVVHVMSKGAAAAIAHHRKKGAVVFGEPIAAGLATDGSHYYNEDWLHAARYVMSPPLSRDPSTPSALMKLLAAGELHLTATDNCTFDCQQKSLGKDDFTKIPNGVNGVEDRMSVVWDKGVHAGIIDPMRFVAVTSTMAAKIFNCYPQKGRIAVGSDADIVIWNANATRTISKDTHHHAIDFNIFEGMQVHGVPEITISRGRTVWANGQLKTVQGSGQFIPLAPDSQIVFSAVDNRKKAMEPVKIDRIPYEPSALQTPDANANIVVKAPVRAAIPPGGASSIQF”, the “soluble on expression in E. coli” value is recorded as “not soluble”.

Regarding “MSLLKVREMEREDVERVYEINRESFTTDAWSRFSFEKDFENKFSRRFVLEEDGKVVGYVIFWVVKEEATIMTFAIAPGYRGKGYGEKLLREAISRLGDKVKRVVLDVRKSNLRAINLYKKLGFKVVTERKGYYSDGENALLMELKISRPSEAELSREGHHHHHH”, the “soluble on expression in E. coli” value was “soluble”.

Values taken from the DeepSol protein solubility set.
